# The RNAGym collection of RNA variant scans (doi:10.1073/pnas.2313332121)
# Variants at the floor of the assay were thinned out.
# B1: TPR 5TU (parent)
# chain: GGAUCUUCUCGAUCUAACAAAAAAGACAAAUCUGCCACAAAGCUUGAGAGCAUCUUCGGAUGCAGAGGCGGCAGCCUUCGGUGGCGCGAUAGCGCCAACGUUCUCAACUAUGACACGCAAAACGCGUGCUCCGUUGAAUGGAGUUUAUCAUG
# Variants of: B1
# Assay: polymerase ribozyme fitness, log enrichment relative to wild type (log ratio); higher = more active; in vitro selection for triplet polymerase activity
# Procedure, shortened: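 Input and output libraries were sequenced on Illumina after a single in vitro selection round, run in triplicate on PCR-built, transcribed mutant libraries of each subunit of a heterodimeric triplet polymerase ribozyme. Selection annealed libraries to a biotinylated primer, the partner subunit and triplets, incubated them frozen at −7 °C, then gel-excised extended constructs for streptavidin-bead capture and RT-PCR. Genotypes with ≥10 input reads and ≥1 read per output were kept. Fitness is the logarithm, taken in base 2, of genotype enrichment divided by wild-type enrichment, using inverse-variance-weighted replicate averages.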
row,Variant,polymerase ribozyme fitness (log ratio)
1,C14G A21U A52G C85A C118G G128A G141C,≤ -4.2
2,G62A C87G U90A C96U C99U U148G,≤ -4.2
3,A37G C38A C43U C54G G80U U104G,≤ -4.2
4,C93A A106C A120U,-2.8
5,A28C A29U A107U A115G,≤ -4.2
6,A17U G50C G68C C85G G94A A106U C123U U134A U135A,≤ -4.2
7,C87U A98G,-1.67
8,A16C G42U G58C G84U G100A U102G A137U U144C,≤ -4.2
9,A21C A60G A73U C93G A137U,≤ -4.2
10,A22U C87U,0.455
11,G50C C57G C95A A115C,≤ -4.2
12,G59A A115G G140A,≤ -4.2
13,C79U C93U,-3.03
14,U31G G42C G50C C57A C79G G80C G136C,≤ -4.2
15,G71A C99U,≤ -4.2
16,U111C,-1.77
17,C93U C131A,-2.97
18,C32G G94C,-4.18
19,A20C A22U G58A U77C C96G,≤ -4.2
20,A12G A29U U44C G50C A91C C93G G94C C116U U144A,≤ -4.2
21,C35A C43U A49U A64G C76U C96A U101G C149U,≤ -4.2
22,A16G G80C G81A A97G U102C G136C C149U,≤ -4.2
23,A41G C54G G117U G124C,-1.19
24,U31A A39U C93G C95U C99U A107G A113U C132U U135C A138G,≤ -4.2

row,Variant,polymerase ribozyme fitness (log ratio)
1,G68A G74C G88A,≤ -4.2
2,C8G G11U U31A U90G A137C A150U,-4.16
3,A47U G50C C93A C96G,≤ -4.2
4,U82G U104C C116U C125U A138C,≤ -4.2
5,C38U C85G C93U G117U G128C,≤ -4.2
6,U13G A122C A142C,-2.05
7,A22C G92C,-1.73
8,A97U G141C U146G,-2.08
9,C5U U7C A21U G86A C131A,-4.16
10,G58C U78G C85G A106U A113G U144C,≤ -4.2
11,U55G C57U C63G A66U G94C U104G,≤ -4.2
12,G81A C87U G100C G133U G141U,≤ -4.2
13,U61A G67A C76A G81A C85A,≤ -4.2
14,C87A G140C,≤ -4.2
15,A19C A41C G48C C87U A91C A115C A122U G136C U145A,≤ -4.2
16,A23U G84A,-3.32
17,A39U G42C U77C C85A C95G,≤ -4.2
18,C85U C87U C108U C114A,≤ -4.2
19,C75G C85U U101C,≤ -4.2
20,G83C C118A A142G,-2.35
21,G59U C96U A142G,-1.66
22,A22U U56A G84A G136C,-3.75
23,A49G G133C,-2.21
24,C85G G141A C149G,≤ -4.2

row,Variant,polymerase ribozyme fitness (log ratio)
1,A16U U53A C75A C93A C103G U130A,≤ -4.2
2,C5U A19G U77A C95U,≤ -4.2
3,C14G U53A C85G U90A A91U C99A C118A A120U,≤ -4.2
4,A20G A22U G141A,-1.8
5,U55C C85U A97U,-1.16
6,A12C G58C C96G,-1.07
7,C14G G86C,≤ -4.2
8,A28U C79A A91U C108G U130G G143C,≤ -4.2
9,A40C A60G U139C U144C,-3.63
10,A28C A73C U78G G86C A110U A113U A137C A138U,≤ -4.2
11,U6C A24C G86U U104G C125U,≤ -4.2
12,A12U G67U G84A A110U,≤ -4.2
13,C38U C76U G81C,-0.0752
14,U9A A16G U45A C57A C75G G83U G92A,≤ -4.2
15,A26U A28C A52C G58A U139G A147C,≤ -4.2
16,A20G C43U G62U A91G,≤ -4.2
17,U6G C63U A89C,-0.961
18,A49C A89U G92C U104G U127G A142G,≤ -4.2
19,A12G C51U,0.193
20,U61A G143C,-2.62
21,C14U G83U G88C A147G,≤ -4.2
22,G92U C96A G136C,-3.56
23,G84A G88U,-3.57
24,C93U C149G,-4.08

row,Variant,polymerase ribozyme fitness (log ratio)
1,U13A G50A U55A A89C,-3.57
2,U101C A150G,-1.59
3,C57G G58A G86U,-1.7
4,C10A C85U,-4.01
5,U15A A29G U78A G88A G126U U135G U148G,≤ -4.2
6,A41C A91G,-2.85
7,C54U C95G,-1.07
8,A30G U53A G62U A64G,≤ -4.2
9,G68U,-3.71
10,G68A,-3.29
11,C116U U148A,-3.85
12,U82A U146A,-0.606
13,C10U A22C C36A A49C U53C C57G G58A G86U C93U G117U,≤ -4.2
14,G84C C85A G92U C96A A97C C105U,-2.61
15,G50U G94A U102C C103U,-3.63
16,C18G C95U,0.206
17,C10U U56A C93U A122U C149U G152U,≤ -4.2
18,C5U C87U,0.457
19,A73U C118U,-0.982
20,G58C U82G C99G,-1.45
21,A37C U144A,-0.958
22,G46A G84A A119C G136A A150G,-3.68
23,A73U G80A C93U U146G,-3.03
24,A89U C93U C125U U127A A142U C149U,≤ -4.2

row,Variant,polymerase ribozyme fitness (log ratio)
1,C32U A49C G92U C99A A115G A147C,≤ -4.2
2,A24U C96U G117A G133A U145A,≤ -4.2
3,G83A A115C A122U U134A,-3.03
4,C18G A52C C93G,≤ -4.2
5,U13C A52G U102C C118G,-3.18
6,A40G U53G G84A A110G G136U,≤ -4.2
7,A39C C118U A120U,-1.81
8,A37C A97G U151A,≤ -4.2
9,A19U C85A A113U,-3.44
10,A29G U45C A52C U53G U134C G136U,≤ -4.2
11,A29C G58A G83A C118U,≤ -4.2
12,A29U G48A C87G A121G G141C G152U,≤ -4.2
13,A16C A20G A24U A40G G48U G58U U77C C85U,≤ -4.2
14,C8U A40C A41G G50A U56A C93A,≤ -4.2
15,U55G G70A C129G,≤ -4.2
16,C5G A12G A21C A26U C38G U77A C118U,≤ -4.2
17,A66G G83U,-3.62
18,C72U G126U,-0.101
19,A21C C85U,-0.369
20,C43U G84U A113U,≤ -4.2
21,C63A C76G C85U C96U A97G C116G,≤ -4.2
22,A21C G50A U102A,-1.21
23,A122U U146C,-0.714
24,A29G C43U U45A A52C C75G A91U A115G U151G,≤ -4.2

row,Variant,polymerase ribozyme fitness (log ratio)
1,G48A A49U G70U C75A G88A,≤ -4.2
2,A19G A21C A30U C38G A41C G48A U77G C93G C114G,≤ -4.2
3,A12G U13A A19C G92C C99U G124C U148G G152U,≤ -4.2
4,U82G G86A,-0.594
5,G48C G141U,-1.8
6,A52G C103U,-1.06
7,U13C A29U A52C G86C A107C U109A,≤ -4.2
8,G94A C105A,-1.65
9,G34A C57A C87U A89U G94U C96A U104A C105G A110U G126U,≤ -4.2
10,C54U U56A G71A A107C A150C,≤ -4.2
11,C18A A20C U82C A122C,-1.71
12,A23G G59U C95U A110G,-3.86
13,G42C A47G C57A C75G C125G,≤ -4.2
14,C10G C54U G62C G86U U146C,≤ -4.2
15,A41C C93U C105U,-1.68
16,C27A U56A A60U A122C U144A,≤ -4.2
17,G11A A60G A106G,-0.626
18,A19C C57A A119G G128A,-4.12
19,A29G G70A A120U G143A A150C,≤ -4.2
20,A52G G83C C105A,-2.55
21,C51A C57A C87U A98G U146G,-3.12
22,C85G C125U,-3.35
23,A23U A24U,-4.12
24,G11C G42U U55G C76U,≤ -4.2

row,Variant,polymerase ribozyme fitness (log ratio)
1,C5G A37U A40U C95A U139A,≤ -4.2
2,U31C C69U G86U C96U A142G,-2.99
3,U53G G117C A137G,-2.86
4,A30C G84A A115C C149U,≤ -4.2
5,A49C G68C C85G A115G A119G G141U A147C,≤ -4.2
6,C8G G11A A52G A89U C93G,≤ -4.2
7,U55A G100A,≤ -4.2
8,G46A G68C A89C G124A,≤ -4.2
9,A52C G59A G68A C79U G92U U104G,≤ -4.2
10,U9G A23U G34C C57A C93A,≤ -4.2
11,A29U C32U G62A G67U C75G U82G A142U A150G,-3.64
12,A22U U56A A64G A122U C123G A150G,≤ -4.2
13,C51G A91U,≤ -4.2
14,G25C C57U C123A C125G,-2.33
15,C54A C57A C87A A89G,≤ -4.2
16,U13A C38U,-0.321
17,U56A C103G,-0.914
18,A23U C54A G83U U102G,≤ -4.2
19,U53A C95U,-0.368
20,C5G C38A A39C A60U A73G G94U U104A A138U,≤ -4.2
21,A17G G50U,0.372
22,A3C A24G A73U C93A,≤ -4.2
23,G25U U44G U45A U56A G80A C85U A97U,≤ -4.2
